Test results taken from the DeepSol protein solubility set.

Experiment: soluble on expression in E. coli; label from the status in PepcDB or PDB records

Sequence	soluble on expression in E. coli
MKDVSTDAPVDSARIINGKFAFADTTKIENPVIKILSIHASKMGLEYRLPVVIENGTIKASIADVVCTEGTMLNERMQDFLLAIDAYSAACTDKPVEQIKSGFSELLKRYIEMNNDNVIGTYIQTAYQSSL	not soluble
MENSRLMQSMPRTPKFEEEKKTDKDKEKEEKERNGKKTELARAQNKKAQEKDMPRFKQGENQIDTATETYELTSELGQGSFGAVFGVTRKSDKRHFAMKCESVNMKRAILPHEAGVLLALNHLKSPHFLEMVDHGIVNNRFLFVVLKLVGMNLWDMRAHLPDKKYTLTTTLRIAEQTLAGLRDLHRVGFLHRDIKPPNFAIGREEDDTYHTVFLLDFGLCRKIAMKGKDLRTPRKECAFRGTTRYAALAAHDNKEQSRKDDIESWWYMIAEMIVFDIPWKQFRGTDRDNVRGMKWRLRADETYFKFLFRKCCYEQMSAILLYLDQLSYSSIPDYDFVYHHLQAAAIVNNCSAKSPPDWDPKSQHYKGPIYKEREPYIVKSLE	not soluble
MDKNLLEAVKFDEKGLVCAIAQDAETKRILMVAWMNAEALQKTVETGFAHYYSRSRQKQWMKGEESGHTQKVRALRLDCDGDAIVMLIAQNGGIACHTGRESCFYKVWRGSAWETADAVLKDEKEIYGSTH	not soluble
MVMSQKTLFTKSALAVAVAIISTQAWSAGFQLNEFSSSGLGRAYSGEGAIADDAGNVSRNPALITMFDRPTFSAGAVYIDPDVNISGTSPSRRTLDADNIAPTAWVPNVHFVAPINDQFGWGASITSNYGLATEFNDTYAGGSVGGTTDLETMNLNLSGAYRLNEAWSFGLGFDAVYARAKIERFAGDLGQLVAAQNPALAPVAGQIPSDTKIAHLNGNQWGFGWNAGILYELDKNNRYALTYRSEVKIDFKGNYSSDLPIAINRFNLPIPTATGGATQSGYLTLNLPEMWEVSGYNRVAPQWAIHYSLAYTSWSQFQELKAKSTAGDTLFEKHEGFKDAYRIALGTTYYYDDNWTFRTGIAFDDSPVPAQNRSISIPDQDRFWLSAGTTYAFNKDASVDVGVSYMHGQSVKINEGPYQFESEGKAWLFGTNFNYAF	not soluble
MSLKHGRTRLIGLIIADITNPYSVNVMSGIEAACREKGFTLLVCNTNNELDQELHYLDLLRSYQVEGIVVNAVGMREDGLNRLQQSALPMVLIDRKIPDFACDVVGLDNAQAATTATEHLVEKGFEAILFLSEPLGSVNTRRERLSAFRATLARHHGVVAENAEVQLNDGAMLDNVLRQFHARHRGMRKAVISANGALTLQVARALKRVGLIWGSDIGLLGFDELEWAELAGVGITTLKQPTWQIGYAAVEQVIRRIAGTNDPIRERVFSGELIVRGSTSREGHHHHHH	soluble
MGHHHHHHSHMQSCESSGDSADDPLSRGLRRRGQPRVVVIGAGLAGLAAAKALLEQGFTDVTVLEASSHIGGRVQSVKLGHATFELGATWIHGSHGNPIYHLAEANGLLEETTDGERSVGRISLYSKNGVACYLTNHGRRIPKDVVEEFSDLYNEVYNLTQEFFRHDKPVNAESQNSVGVFTREEVRNRIRNDPDDPEATKRLKLAMIQQYLKVESCESSSHSMDEVSLSAFGEWTEIPGAHHIIPSGFMRVVELLAEGIPAHVIQLGKPVRCIHWDQASARPRGPEIEPRGEGDHNHDTGEGGQGGEEPRGGRWDEDEQWSVVVECEDCELIPADHVIVTVSLGVLKRQYTSFFRPGLPTEKVAAIHRLGIGTTDKIFLEFEEPFWGPECNSLQFVWEDEAESHTLTYPPELWYRKICGFDVLYPPERYGHVLSGWICGEEALVMEKCDDEAVAEICTEMLRQFTGNPNIPKPRRILRSAWGSNPYFRGSYSYTQVGSSGADVEKLAKPLPYTESSKTAPMQVLFSGEATHRKYYSTTHGALLSGQREAARLIEMYRDLFQQGT	soluble
MDGNQYEAIFLNYFRGIFPNADNLNVKCVKRMSEQQMKTTISRHGMRCTVLNGKDKISSYTVKKIVETPGKREYYGVRDIFAFKLLDMMGVGPKVHFVSNGEVGDDVGLFIVTEDD	not soluble
FQDVTNTPVEGMKPYTALQLEGRDIYIREGCVGCHSQMIRPFRAETERYGHYSVAGESVWDHPFLWGSKRTGPDLARVGSRYSDDWHRAHLFNPRNVVPESKMPAYPWLVENKLDGKDIEKKLEVMRTLGVPYTDEDIKGAKDSLKGKTEMDAVVAYLQVLGTSIK	not soluble
SDFPPTKLDYHVDMFNLQSHSRFLSLFKAQDGRIALILESTVFHPQGGGQPSDTGLIVFSGSDLKFSVQDVRSKDGIVLHYGVFEGSNPESGIDSEKGKEVYLTVDESRRKLNSRLHSAGHLLDMCMQKVGLGHLEPGKGYHFPDGPFVEYKGSVPQEEFQVKQKELEAEANELISKGGKVYAAILPYEEASVLCGGSLPDYISKGSTPRIIKLGDSPGCPCGGTHVSNLSDIISMKMRTKKGMTKVFYTIAS	soluble
GSYCPRNLHLLPTTDTYLSKVSDDPDNLEDVDDEELNAHLLNEEASKLKERIWIGLNADFLLEQESKRLKQE	soluble
MATEAPTQSYSEQWYWDDRYKNESEPFDWYQKYSPLAPLINLYVPQRNQRVLVIGCGNSAFSEGMVDDGYEDVVSIDISSVVIDTMIKKYSDRPQLKYLKMDVRDMKAFEDASFDAVIDKGTLDSILCGSNSRQYSTQMLEEVWRVLKDKGVYILITYGAPIYRLRLFKESCSWTTKLHVIDKSLTDQPLDTPKWELTKPLPLDADGSSVESAIGKNPDVHYIYVCIKDESSKMEADAA	soluble
QGMNNPADAGINLNYLANVRPSSRQLAWQRMEMYAFLHFGMNTMTDREWGLGHEDPALFNPRNVDVDQWMDALVAGGMAGVILTCKHHDGFCLWPSRLTRHTVASSPWREGKGDLVREVSESARRHGLKFGVYLSPWDRTEESYGKGKAYDDFYVGQLTELLTQYGPIFSVWLDGANGEGKNGKTQYYDWDRYYNVIRSLQPDAVISVCGPDVRWAGNEAGHVRDNEWSVVPRRLRSAELTMEKSQQEDDASFATTVSSQDDDLGSREAVAGYGDNVCWYPAEVDTSIRPGWFYHQSEDDKVMSADQLFDLWLSAVGGNSSLLLNIPPSPEGLLAEPDVQSLKGLGRRVSEFREALASVRCEARTSSASAAAAHLVDGNRDTFWRPDADDAAPAITLTLPQPTTINAIVIEEAIEHGQRIEHLRVTGALPDGTERVLGQAGTVGYRRILRFDDVEVSSVTLHVDGSRLAPMISRAAAVRI	soluble
MGSDKIHHHHHHAADVSFPDAVRKVAVINNMPVLKTKDNHEILSSELEGDGKVASEALAENIANVNYFDQVIICDSVFRAQDKVPRVNVILTKEEVRKLSEDLGVDMILSFDRIHIQTKPGVLFYPDFPMPIDAVDGIISPIVRVYIPNRDKPLFVVAKQDTISWEIEPALSDRKIVKEASEYAASIPVEHLLPHWDEVARFYYDGGNIEMRDAGVYLRENNWDEAYSQWKIAYEKRKGQQKMKAAFNIALYYEIKDNVEQAKEWLGKAKKLVKSGSRDEQLIAFYSLELEKRGSKLSQLRIQMKRFDDNF	not soluble
VFLPTNAQYQLLVVGVSPWDTPSPSGRISWGSAWPHQARRAQTCQRVRRHWMIDTTEAAYRLTYQPDGTSITVRENLVDILARELLGPIRGPQEVLPFSPRSQYLVGHLAPVKLTGAALIDDNAVQARANAEALAEGGGVPAYAADETTPTPTTTPKTAHPSRA	not soluble
MDKKIIGIDLGGTTIKFAILTTDGVVQQKWSIETNILEDGKHIVPSIIESIRHRIDLYNMKKEDFVGIGMGTPGSVDIEKGTVVGAYNLNWTTVQPVKEQIESALGIPFALDNDANVAALGERWKGAGENNPDVIFITLGTGVGGGIVAAGKLLHGVAGCAGEVGHVTVDPNGFDCTCGKRGCLETVSSATGVVRVARHLSEEFAGDSELKQAIDDGQDVSSKDVFEFAEKGDHFALMVVDRVCFYLGLATGNLGNTLNPDSVVIGGGVSAAGEFLRSRVEKYFQEFTFPQVRNSTKIKLAELGNEAGVIGAASLALQFSKEK	soluble
AVKEMVYRTRLANGLTVALLPKKEFKEVYGSVTVQFGSVDTFVTEVDGDVKQYPGGIAHFLEHKLFEREDSSDLMSAFTSLGADSNAFTSFTKTNYLFSATDYFLENLDLLDELVTSAHFTEASILTEQDIIQQEREMYQDDPDSCLFFSTLANLYPGTPLATDIVGSEESISQINLTNLQENFTKFYKPVNMSLFLVGNFDVERVQDYFESKELKDSDFQEVAR	not soluble
MGSDKIHHHHHHMIDLDFRKLTIEECLKLSEEEREKLPQLSLETIKRLDPHVKAFISVRENVSVEKKGKFWGIPVAIKDNILTLGMRTTCASRILENYESVFDATVVKKMKEAGFVVVGKANLDEFAMGSSTERSAFFPTRNPWDLERVPGGSSGGSAAAVSAGMVVAALGSDTGGSVRQPASLCGVVGYKPTYGLVSRYGLVAFASSLDQIGPITKTVRDAAILMEIISGRDENDATTVNRKVDFLSEIEEGVSGMKFAVPEEIYEHDIEEGVSERFEEALKLLERLGAKVERVKIPHIKYSVATYYVIAPAEASSNLARFDGVKYGLRIKEKGLREMYMKTRNVGFGEEVRRRIMIGTFTLSAAYYEAYFNKAMKVRRKISDELNEVLSQYDAILTPTSPVTAFKIGEIKDPLTYYLMDIFTIPANLAGLPAISVPFGFSNNLPVGVQVIGRRFADGKVFRIARAIEKNSPYNENGMFPLPEVKA	not soluble
MKNTLLKLGVCVSLLGITPFVSTISSVQAERKVEHKVIKNETGTISISQLNKNVWVHTELGYFNGEAVPSNGLILNTSKGLVLVDSSWDDKLTKELIEMAEKKFKKSVTDVIITHAHADRIGGIKTLKERGIKAHSTTLTAELAKKNGYEEPLGDLQAITKLKFGNMKVETFYPGKGHTEDNIVVWLPQYNMLVGGCLVKSASAKDLGNITDAYVNEWSTSIENVLKRYENINFVVPGHGEVGDKGLLLHTLDLLK	not soluble
MKLFLAEPFKSLWAGRDAFAEVEGLSGEVYRELEGRRTLRTEVDGRGYFVKIHRGIGWGEIAKNLATAKLPVLGAGKEWDAIERLHEVGVPTMTAVAYGERGSNPAAQHSFIVTEELAPTTSLEDVSLNWRTEPPEPRLKRAFIAEVARLVGMMHRAGVNHRDCYICHFLLHTDKPVTADDFRLSVIDLHRAQTRRAITPRWRNKDLAALYFSALDIGLTRRDKLRFLKDYFQLPLREILLKEAALLTWLDKKADKLYQRKVRYGDAL	not soluble
MNYHTFCPISCVSWLYQKIEDSFFLVIGTKTCGYFLQNAMGVMIFAEPRYAMAELEEGDISAQLKDYEELKRLCLQIKRDRNPSVIVWIGTCTTEIIKMDLEGLAPQLEAEIGIPIVTARANGLDYAFTQGEDTVLASMAHKCPTSAQVQGEDKELEHHHHHH	soluble
MSLKGNLDVIPQPQEIVLARDTTPFIIDRSTTIVYPATNEKMHRTADFLATFIKEMTGTEVHVSDKEKSSNAIILAVDSTMGHPEGYKLQITPEKVLLTGGSEAGVFYGIQTIHKALPILKDGKVAAALPAGTVTDFPRFRYRGFMIDVGRHFFPVSYLKQMIDLMALHNINYFHWHLTEDQGWRIEIKKYPKLTEIGSKRDSTIIDWETKKFDGKPHSGFYTQDEAREIVRYAADRFITVVPEIDLPGHTTAALASYPELGCTGGPYKVLCSFGVFPDVLCAGNDQTLQFTKDVLDEIMDIFPSEYIHIGGDECPKSRWEKCPKCQAKIKELGIKALPKHSKENQLQTYFMSELEKEINAHGRRMLGWDEVLEGGLTPNSTIMSWRGIQGGIEAARQHHDVIMTPIQRLYFSNPRINKMTGFEWMNRVYNFEPVPAELTDAEKKFVIGTQGCIWTEWTADSTKMEWQILPRMAALSEIQWTLPEHKNFERFMERLPEMLKIYSSLDYGYREDVFAADTLKTHKEGHHHHHH	soluble
REKGIVEPSCGVTANAIMKLFLDKDGFSYCFENEQTLSLEQLQERLSCMPECKSFVLRVNDGALGHAYIVDIPKGENSCRPAFLYQSDLGEGVTRKLRFEDWMTHKALTPILLDDICNYFSCMSQNKTDLEQIATLFDIDGNVKMLRKENIQYQKHDNFSFQLFEYDTDNIEKNIEIIKSLCSGAAALEHHHHHH	soluble
